Assay results published in patent publication US11957762B2, “Immune tolerant and non-immune tolerant elastin-like recombinant peptides and methods of use” (University of Utah Research Foundation, priority 2015, dated 2024).

B1: RED-NP: reductive-environment dependable NP, disulfide stabilized fusion iTEPB70-iTEPA28-(G8C)4-pOVA (SEQ ID NO: 61) (protein)
chain: GGAGVPGGAGVPGGAGVPGGAGVPGGAGVPGGAGVPGGAGVPGGAGVPGGAGVPGGAGVPGGAGVPGGAGVPGGAGVPGGAGVPGGAGVPGGAGVPGGAGVPGGAGVPGGAGVPGGAGVPGGAGVPGGAGVPGGAGVPGGAGVPGGAGVPGGAGVPGGAGVPGGAGVPGGAGVPGGAGVPGGAGVPGGAGVPGGAGVPGGAGVPGGAGVPGGAGVPGGAGVPGGAGVPGGAGVPGGAGVPGGAGVPGGAGVPGGAGVPGGAGVPGGAGVPGGAGVPGGAGVPGGAGVPGGAGVPGGAGVPGGAGVPGGAGVPGGAGVPGGAGVPGGAGVPGGAGVPGGAGVPGGAGVPGGAGVPGGAGVPGGAGVPGGAGVPGGAGVPGGAGVPGGAGVPGGAGVPGGAGVPGGAGVPGGAGVPGGAGVPGGGVLPGVGGVLPGVGGVLPGVGGVLPGVGGVLPGVGGVLPGVGGVLPGVGGVLPGVGGVLPGVGGVLPGVGGVLPGVGGVLPGVGGVLPGVGGVLPGVGGVLPGVGGVLPGVGGVLPGVGGVLPGVGGVLPGVGGVLPGVGGVLPGVGGVLPGVGGVLPGVGGVLPGVGGVLPGVGGVLPGVGGVLPGVGGVLPGVGGCGCGCGCGESIINFEKLTESIINFEKLTGG
B2: ST-NP: stable NP of the fusion iTEPB70-iTEPA56-pOVA (SEQ ID NO: 60) (protein)
chain: GGAGVPGGAGVPGGAGVPGGAGVPGGAGVPGGAGVPGGAGVPGGAGVPGGAGVPGGAGVPGGAGVPGGAGVPGGAGVPGGAGVPGGAGVPGGAGVPGGAGVPGGAGVPGGAGVPGGAGVPGGAGVPGGAGVPGGAGVPGGAGVPGGAGVPGGAGVPGGAGVPGGAGVPGGAGVPGGAGVPGGAGVPGGAGVPGGAGVPGGAGVPGGAGVPGGAGVPGGAGVPGGAGVPGGAGVPGGAGVPGGAGVPGGAGVPGGAGVPGGAGVPGGAGVPGGAGVPGGAGVPGGAGVPGGAGVPGGAGVPGGAGVPGGAGVPGGAGVPGGAGVPGGAGVPGGAGVPGGAGVPGGAGVPGGAGVPGGAGVPGGAGVPGGAGVPGGAGVPGGAGVPGGAGVPGGAGVPGGAGVPGGAGVPGGAGVPGGAGVPGGGVLPGVGGVLPGVGGVLPGVGGVLPGVGGVLPGVGGVLPGVGGVLPGVGGVLPGVGGVLPGVGGVLPGVGGVLPGVGGVLPGVGGVLPGVGGVLPGVGGVLPGVGGVLPGVGGVLPGVGGVLPGVGGVLPGVGGVLPGVGGVLPGVGGVLPGVGGVLPGVGGVLPGVGGVLPGVGGVLPGVGGVLPGVGGVLPGVGGGGGGGGGCGGGGGGGGCGGGGGGGGCGGGGGGGGCGESIINFEKLTESIINFEKLTGG

Columns and labels:
[1] = Quantification of free sulfhydryl groups (Ellman's method); format: physicochemical
Protocol: Quantification of free sulfhydryl groups of RED-NP after reducing treatments. Twenty mg of RED-NP were dissolved in 2 mL of H2O and treated with 1 mM of GSH for 16 h. The solution was then dialyzed (membrane cutoff MW: 3,500 Dalton) in deionized water at 4° C. for 24 h. Then the sample was concentrated to 0.5 mL using Amicon centrifugal filter devices (Millipore, USA). Numbers of free sulfhydryl groups of RED-NP were determined by Ellman's method. Briefly, 250 μL of sample and 50 μL of Ellman's reagent (Thermo Scientific, USA) were added to 2.5 mL of reaction buffer (0.1 M sodium phosphate, pH 8.0, 1 mM EDTA). After 15 min of incubation at room temperature, the OD412 was measured. To generate a standard curve of free sulfhydryl groups, OD412 of serial dilutions of cysteine hydrochloride monohydrate was measured. The serial OD412 values were plotted against concentrations of cysteine hydrochloride monohydrate to generate a standard curve. Concentrations of free sulfhydryl groups in the RED-NP samples were determined from the standard curve and used to calculate numbers of free sulfhydryl groups per iTEP-vaccine fusion molecules.

[2] = system: endothelial cells (EA.hy926 and bEnd.3) and fibroblasts (3T3); test: Cellular uptake of iTEP-vaccine fusions by control cells; format: cell-based; details: 5 μM coumarin-labeled fusions, 4 h
Protocol: Cellular uptake of iTEP-vaccine fusions. DC2.4, EA.hy926, bEnd.3, 3T3 cells were plated at 1.5×10^5/500 μL/well in 24-well plates. When the cells attached to the bottom of the plate (4 h or overnight), the media was replaced with 500 μL of fresh media with or without 5 μM of coumarine labeled iTEP-vaccine fusions. After being cultured for 4 h at 37° C. in 5% CO2, the cells were collected and washed twice with PBS. The fluorescence of the cells was measured by flow cytometry (collecting 5×10^4 events per sample).

Molecule	free sulfhydryl groups, on average ([1]; after the treatment of 1 mM of GSH)	free sulfhydryl groups, on average ([1]; before GSH treatment)	uptake by endothelial cells and fibroblasts relative to the MS-NP [2]
B1	two	zero	
B2			either the same amount or less
